Assay results published in article PMC2735609 (Cellular signalling, 2009).

Assays:
Assay in all cases: radioligand binding
[1] = target: hLHR(D405N), on intact HEK293 cells (human, UniProt P22888 27-699, D405N)
[2] = target: hLHR(Y546F), on intact HEK293 cells (human, UniProt P22888 27-699, Y546F)
[3] = target: hLHR(D405N,Y546F), on intact HEK293 cells (human, UniProt P22888 27-699, D405N | Y546F)
Sequence of hLHR(D405N,Y546F), on intact HEK293 cells (P22888 27-699 D405N/Y546F): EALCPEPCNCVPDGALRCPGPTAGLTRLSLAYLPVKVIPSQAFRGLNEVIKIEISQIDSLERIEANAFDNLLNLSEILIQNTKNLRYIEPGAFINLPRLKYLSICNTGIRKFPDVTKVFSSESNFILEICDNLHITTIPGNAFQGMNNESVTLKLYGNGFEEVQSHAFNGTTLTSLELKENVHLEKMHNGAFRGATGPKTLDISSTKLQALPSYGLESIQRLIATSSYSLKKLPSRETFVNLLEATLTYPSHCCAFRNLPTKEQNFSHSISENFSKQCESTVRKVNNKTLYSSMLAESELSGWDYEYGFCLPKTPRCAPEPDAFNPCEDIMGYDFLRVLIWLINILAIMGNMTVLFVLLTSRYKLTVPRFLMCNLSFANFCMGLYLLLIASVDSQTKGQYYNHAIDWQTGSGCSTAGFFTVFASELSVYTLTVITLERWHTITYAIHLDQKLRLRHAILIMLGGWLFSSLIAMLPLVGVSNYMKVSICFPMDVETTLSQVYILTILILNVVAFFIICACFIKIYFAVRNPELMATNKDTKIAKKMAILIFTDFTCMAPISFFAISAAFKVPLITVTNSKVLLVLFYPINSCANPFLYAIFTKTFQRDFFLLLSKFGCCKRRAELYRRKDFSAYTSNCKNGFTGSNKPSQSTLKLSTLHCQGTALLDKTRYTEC

Sequence of hLHR(D405N), on intact HEK293 cells (P22888 27-699 D405N): as the sequence (P22888 27-699 D405N/Y546F) above, with F520Y counted along it
Sequence of hLHR(Y546F), on intact HEK293 cells (P22888 27-699 Y546F): as the sequence (P22888 27-699 D405N/Y546F) above, with N379D counted along it

B1: human chorionic gonadotropin (hCG), highly purified recombinant, 125I-labelled (ligand)
chain 1: not shown
chain 2: SKEPLRPRCRPINATLAVEKEGCPVCITVNTTICAGYCPTMTRVLQGVLPALPQVVCNYRDVRFESIRLPGCPRGVNPVVSYAVALSCQCALCRRSTTDCGGPKDHPLTCDDPRFQDSSSSKAPPPSLPSPSRLPGPSDTPILPQ
modifications: 125I label (which chain is not stated) | 125I label (which chain is not stated)
hCG bound to intact cells [1]: 20.4 ng hCG/10^6 cells
hCG bound to intact cells [2]: 22.6 ng hCG/10^6 cells
hCG bound to intact cells [3]: 8.7 ng hCG/10^6 cells
